Results taken from article PMC7335425 (Cell, 2020).

B1: LetB L243N, TM helix deleted (domain or fragment, E. coli, UniProt P76272 43-877, looked up)
chain: QDRGNTVTIDFMSADGIVPGRTPVRYQGVEVGTVQDISLSDDLRKIEVKVSIKSDMKDALREETQFWLVTPKASLAGVSGLDALVGGNYIGMMPGKGKEQDHFVALDTQPKYRLDNGDLMIHLQAPDLGSLNSGSLVYFRKIPVGKVYDYAINPNKQGVVIDVLIERRFTDLVKKGSRFWNVSGVDANVSISGAKVKLESNAALVNGAIAFDSPEESKPAEAEDTFGLYEDLAHSQRGVIIKLELPSGAGLTADSTPLMYQGLEVGQLTKLDLNPGGKVTGEMTVDPSVVTLLRENTRIELRNPKLSLSDANLSALLTGKTFELVPGDGEPRKEFVVVPGEKALLHEPDVLTLTLTAPESYGIDAGQPLILHGVQVGQVIDRKLTSKGVTFTVAIEPQHRELVKGDSKFVVNSRVDVKVGLDGVEFLGASASEWINGGIRILPGDKGEMKASYPLYANLEKALENSLSDLPTTTVSLSAETLPDVQAGSVVLYRKFEVGEVITVRPRANAFDIDLHIKPEYRNLLTSNSVFWAEGGAKVQLNGSGLTVQASPLSRALKGAISFDNLSGASASQRKGDKRILYASETAARAVGGQITLHAFDAGKLAVGMPIRYLGIDIGQIQTLDLITARNEVQAKAVLYPEYVQTFARGGTRFSVVTPQISAAGVEHLDTILQPYINVEPGRGNPRRDFELQEATITDSRYLDGLSIIVEAPEAGSLGIGTPVLFRGLEVGTVTGMTLGTLSDRVMIAMRISKRYQHLVRNNSVFWLASGYSLDFGLTGGVVKTGTFNQFIRGGIAFATPPGTPLAPKAQEGKHFLLQESEPKEWREWGTALPK
B2: LetB L355N, TM helix deleted (domain or fragment, E. coli, UniProt P76272 43-877, looked up)
chain: QDRGNTVTIDFMSADGIVPGRTPVRYQGVEVGTVQDISLSDDLRKIEVKVSIKSDMKDALREETQFWLVTPKASLAGVSGLDALVGGNYIGMMPGKGKEQDHFVALDTQPKYRLDNGDLMIHLQAPDLGSLNSGSLVYFRKIPVGKVYDYAINPNKQGVVIDVLIERRFTDLVKKGSRFWNVSGVDANVSISGAKVKLESLAALVNGAIAFDSPEESKPAEAEDTFGLYEDLAHSQRGVIIKLELPSGAGLTADSTPLMYQGLEVGQLTKLDLNPGGKVTGEMTVDPSVVTLLRENTRIELRNPKLSLSDANNSALLTGKTFELVPGDGEPRKEFVVVPGEKALLHEPDVLTLTLTAPESYGIDAGQPLILHGVQVGQVIDRKLTSKGVTFTVAIEPQHRELVKGDSKFVVNSRVDVKVGLDGVEFLGASASEWINGGIRILPGDKGEMKASYPLYANLEKALENSLSDLPTTTVSLSAETLPDVQAGSVVLYRKFEVGEVITVRPRANAFDIDLHIKPEYRNLLTSNSVFWAEGGAKVQLNGSGLTVQASPLSRALKGAISFDNLSGASASQRKGDKRILYASETAARAVGGQITLHAFDAGKLAVGMPIRYLGIDIGQIQTLDLITARNEVQAKAVLYPEYVQTFARGGTRFSVVTPQISAAGVEHLDTILQPYINVEPGRGNPRRDFELQEATITDSRYLDGLSIIVEAPEAGSLGIGTPVLFRGLEVGTVTGMTLGTLSDRVMIAMRISKRYQHLVRNNSVFWLASGYSLDFGLTGGVVKTGTFNQFIRGGIAFATPPGTPLAPKAQEGKHFLLQESEPKEWREWGTALPK
B3: LetB L246N, TM helix deleted (domain or fragment, E. coli, UniProt P76272 43-877, looked up)
chain: QDRGNTVTIDFMSADGIVPGRTPVRYQGVEVGTVQDISLSDDLRKIEVKVSIKSDMKDALREETQFWLVTPKASLAGVSGLDALVGGNYIGMMPGKGKEQDHFVALDTQPKYRLDNGDLMIHLQAPDLGSLNSGSLVYFRKIPVGKVYDYAINPNKQGVVIDVLIERRFTDLVKKGSRFWNVSGVDANVSISGAKVKLESLAANVNGAIAFDSPEESKPAEAEDTFGLYEDLAHSQRGVIIKLELPSGAGLTADSTPLMYQGLEVGQLTKLDLNPGGKVTGEMTVDPSVVTLLRENTRIELRNPKLSLSDANLSALLTGKTFELVPGDGEPRKEFVVVPGEKALLHEPDVLTLTLTAPESYGIDAGQPLILHGVQVGQVIDRKLTSKGVTFTVAIEPQHRELVKGDSKFVVNSRVDVKVGLDGVEFLGASASEWINGGIRILPGDKGEMKASYPLYANLEKALENSLSDLPTTTVSLSAETLPDVQAGSVVLYRKFEVGEVITVRPRANAFDIDLHIKPEYRNLLTSNSVFWAEGGAKVQLNGSGLTVQASPLSRALKGAISFDNLSGASASQRKGDKRILYASETAARAVGGQITLHAFDAGKLAVGMPIRYLGIDIGQIQTLDLITARNEVQAKAVLYPEYVQTFARGGTRFSVVTPQISAAGVEHLDTILQPYINVEPGRGNPRRDFELQEATITDSRYLDGLSIIVEAPEAGSLGIGTPVLFRGLEVGTVTGMTLGTLSDRVMIAMRISKRYQHLVRNNSVFWLASGYSLDFGLTGGVVKTGTFNQFIRGGIAFATPPGTPLAPKAQEGKHFLLQESEPKEWREWGTALPK
B4: LetB V247N, TM helix deleted (domain or fragment, E. coli, UniProt P76272 43-877, looked up)
chain: QDRGNTVTIDFMSADGIVPGRTPVRYQGVEVGTVQDISLSDDLRKIEVKVSIKSDMKDALREETQFWLVTPKASLAGVSGLDALVGGNYIGMMPGKGKEQDHFVALDTQPKYRLDNGDLMIHLQAPDLGSLNSGSLVYFRKIPVGKVYDYAINPNKQGVVIDVLIERRFTDLVKKGSRFWNVSGVDANVSISGAKVKLESLAALNNGAIAFDSPEESKPAEAEDTFGLYEDLAHSQRGVIIKLELPSGAGLTADSTPLMYQGLEVGQLTKLDLNPGGKVTGEMTVDPSVVTLLRENTRIELRNPKLSLSDANLSALLTGKTFELVPGDGEPRKEFVVVPGEKALLHEPDVLTLTLTAPESYGIDAGQPLILHGVQVGQVIDRKLTSKGVTFTVAIEPQHRELVKGDSKFVVNSRVDVKVGLDGVEFLGASASEWINGGIRILPGDKGEMKASYPLYANLEKALENSLSDLPTTTVSLSAETLPDVQAGSVVLYRKFEVGEVITVRPRANAFDIDLHIKPEYRNLLTSNSVFWAEGGAKVQLNGSGLTVQASPLSRALKGAISFDNLSGASASQRKGDKRILYASETAARAVGGQITLHAFDAGKLAVGMPIRYLGIDIGQIQTLDLITARNEVQAKAVLYPEYVQTFARGGTRFSVVTPQISAAGVEHLDTILQPYINVEPGRGNPRRDFELQEATITDSRYLDGLSIIVEAPEAGSLGIGTPVLFRGLEVGTVTGMTLGTLSDRVMIAMRISKRYQHLVRNNSVFWLASGYSLDFGLTGGVVKTGTFNQFIRGGIAFATPPGTPLAPKAQEGKHFLLQESEPKEWREWGTALPK
B5: LetB L359N, TM helix deleted (domain or fragment, E. coli, UniProt P76272 43-877, looked up)
chain: QDRGNTVTIDFMSADGIVPGRTPVRYQGVEVGTVQDISLSDDLRKIEVKVSIKSDMKDALREETQFWLVTPKASLAGVSGLDALVGGNYIGMMPGKGKEQDHFVALDTQPKYRLDNGDLMIHLQAPDLGSLNSGSLVYFRKIPVGKVYDYAINPNKQGVVIDVLIERRFTDLVKKGSRFWNVSGVDANVSISGAKVKLESLAALVNGAIAFDSPEESKPAEAEDTFGLYEDLAHSQRGVIIKLELPSGAGLTADSTPLMYQGLEVGQLTKLDLNPGGKVTGEMTVDPSVVTLLRENTRIELRNPKLSLSDANLSALNTGKTFELVPGDGEPRKEFVVVPGEKALLHEPDVLTLTLTAPESYGIDAGQPLILHGVQVGQVIDRKLTSKGVTFTVAIEPQHRELVKGDSKFVVNSRVDVKVGLDGVEFLGASASEWINGGIRILPGDKGEMKASYPLYANLEKALENSLSDLPTTTVSLSAETLPDVQAGSVVLYRKFEVGEVITVRPRANAFDIDLHIKPEYRNLLTSNSVFWAEGGAKVQLNGSGLTVQASPLSRALKGAISFDNLSGASASQRKGDKRILYASETAARAVGGQITLHAFDAGKLAVGMPIRYLGIDIGQIQTLDLITARNEVQAKAVLYPEYVQTFARGGTRFSVVTPQISAAGVEHLDTILQPYINVEPGRGNPRRDFELQEATITDSRYLDGLSIIVEAPEAGSLGIGTPVLFRGLEVGTVTGMTLGTLSDRVMIAMRISKRYQHLVRNNSVFWLASGYSLDFGLTGGVVKTGTFNQFIRGGIAFATPPGTPLAPKAQEGKHFLLQESEPKEWREWGTALPK
B6: LetB L358N, TM helix deleted (domain or fragment, E. coli, UniProt P76272 43-877, looked up)
chain: QDRGNTVTIDFMSADGIVPGRTPVRYQGVEVGTVQDISLSDDLRKIEVKVSIKSDMKDALREETQFWLVTPKASLAGVSGLDALVGGNYIGMMPGKGKEQDHFVALDTQPKYRLDNGDLMIHLQAPDLGSLNSGSLVYFRKIPVGKVYDYAINPNKQGVVIDVLIERRFTDLVKKGSRFWNVSGVDANVSISGAKVKLESLAALVNGAIAFDSPEESKPAEAEDTFGLYEDLAHSQRGVIIKLELPSGAGLTADSTPLMYQGLEVGQLTKLDLNPGGKVTGEMTVDPSVVTLLRENTRIELRNPKLSLSDANLSANLTGKTFELVPGDGEPRKEFVVVPGEKALLHEPDVLTLTLTAPESYGIDAGQPLILHGVQVGQVIDRKLTSKGVTFTVAIEPQHRELVKGDSKFVVNSRVDVKVGLDGVEFLGASASEWINGGIRILPGDKGEMKASYPLYANLEKALENSLSDLPTTTVSLSAETLPDVQAGSVVLYRKFEVGEVITVRPRANAFDIDLHIKPEYRNLLTSNSVFWAEGGAKVQLNGSGLTVQASPLSRALKGAISFDNLSGASASQRKGDKRILYASETAARAVGGQITLHAFDAGKLAVGMPIRYLGIDIGQIQTLDLITARNEVQAKAVLYPEYVQTFARGGTRFSVVTPQISAAGVEHLDTILQPYINVEPGRGNPRRDFELQEATITDSRYLDGLSIIVEAPEAGSLGIGTPVLFRGLEVGTVTGMTLGTLSDRVMIAMRISKRYQHLVRNNSVFWLASGYSLDFGLTGGVVKTGTFNQFIRGGIAFATPPGTPLAPKAQEGKHFLLQESEPKEWREWGTALPK
B7: LetB three-ring truncation mutant (rings 2, 3, 4 and 5 removed), TM helix deleted (domain or fragment)
chain: QDRGNTVTIDFMSADGIVPGRTPVRYQGVEVGTVQDISLSDDLRKIEVKVSIKSDMKDALREETQFWLVTPKASLAGVSGLDALVGGNYIGMMPGKGKEQDHFVALDTQPKYRLDNGGGQITLHAFDAGKLAVGMPIRYLGIDIGQIQTLDLITARNEVQAKAVLYPEYVQTFARGGTRFSVVTPQISAAGVEHLDTILQPYINVEPGRGNPRRDFELQEATITDSRYLDGLSIIVEAPEAGSLGIGTPVLFRGLEVGTVTGMTLGTLSDRVMIAMRISKRYQHLVRNNSVFWLASGYSLDFGLTGGVVKTGTFNQFIRGGIAFATPPGTPLAPKAQEGKHFLLQESEPKEWREWGTALPK
B8: LetB two-ring truncation mutant, TM helix deleted (domain or fragment)
chain: QDRGNTVTIDFMSADGIVPGRTPVRYQGVEVGTVQDISLSDDLRKIEVKVSIKSDMKDALREETQFWLVTPKASLAGVSGLDALVGGNYIGMMPGKGKEQDHFVALDTQPKYRLDNGDGLSIIVEAPEAGSLGIGTPVLFRGLEVGTVTGMTLGTLSDRVMIAMRISKRYQHLVRNNSVFWLASGYSLDFGLTGGVVKTGTFNQFIRGGIAFATPPGTPLAPKAQEGKHFLLQESEPKEWREWGTALPK
B9: LetB four-ring mutant 1–3-4–7, TM helix deleted (domain or fragment)
chain: QDRGNTVTIDFMSADGIVPGRTPVRYQGVEVGTVQDISLSDDLRKIEVKVSIKSDMKDALREETQFWLVTPKASLAGVSGLDALVGGNYIGMMPGKGKEQDHFVALDTQPKYRLDNGRGVIIKLELPSGAGLTADSTPLMYQGLEVGQLTKLDLNPGGKVTGEMTVDPSVVTLLRENTRIELRNPKLSLSDANLSALLTGKTFELVPGDGEPRKEFVVVPGEKALLHEPDVLTLTLTAPESYGIDAGQPLILHGVQVGQVIDRKLTSKGVTFTVAIEPQHRELVKGDSKFVVNSRVDVKVGLDGVEFLGASASEWINGGIRILPGDKGEMKASYPLYANLEKALENSLSDLPTDGLSIIVEAPEAGSLGIGTPVLFRGLEVGTVTGMTLGTLSDRVMIAMRISKRYQHLVRNNSVFWLASGYSLDFGLTGGVVKTGTFNQFIRGGIAFATPPGTPLAPKAQEGKHFLLQESEPKEWREWGTALPK

Target: the molecule itself
Assay: negative stain EM

Row | Protein | stoichiometry N
1 | B1 | 6
2 | B2 | 6
3 | B3 | 6
4 | B4 | 6
5 | B5 | 6
6 | B6 | 6
7 | B7 | 6
8 | B8 | 6
9 | B9 | 6
